Test results published in publication PMC6445466, “Structural determination of the complement inhibitory domain of Borrelia burgdorferi BBK32 provides insight into classical pathway complement evasion by Lyme disease spirochetes” (PLoS Pathogens, 2019).

Columns and labels:
[1] = molecular target: T1, His-C1r-CCP2-SP (residues 376-705) (human, UniProt P00736 376-705); assay: SPR; Biacore T200, 25 °C, BBK32(206-348) immobilised; C1r fragments as analytes, single-cycle as for C1r, 0.8 to 500 nM; 1:1 Langmuir fit; conditions: both partners purified
T1 construct: complement C1r, human, CCP2-SP domains, residues 376-705 as defined by UniProt P00736
T1 sequence: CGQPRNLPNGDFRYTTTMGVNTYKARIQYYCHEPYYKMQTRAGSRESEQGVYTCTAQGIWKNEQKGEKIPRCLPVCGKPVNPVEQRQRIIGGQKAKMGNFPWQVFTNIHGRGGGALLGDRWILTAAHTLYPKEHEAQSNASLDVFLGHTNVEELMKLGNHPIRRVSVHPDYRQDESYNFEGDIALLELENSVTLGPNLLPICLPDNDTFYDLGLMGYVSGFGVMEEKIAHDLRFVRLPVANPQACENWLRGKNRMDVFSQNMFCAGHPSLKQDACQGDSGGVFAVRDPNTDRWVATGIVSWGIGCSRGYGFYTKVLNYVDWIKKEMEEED

[2] = molecular target: T2, C1r_(CCP1-CCP2-SP-auto) (autolytic fragment of human C1r, Leu-300 to Asp-705) (human, UniProt P00736 300-705); assay: as above; conditions: both partners purified
T2 construct: complement C1r, human, residues Leu-300 to Asp-705 by mass spectrometry: last six residues of CUB2 and all of CCP1-CCP2-SP; Runs as one 55 kDa band on non-reducing SDS-PAGE; also called 55 kDa band; autolytic C1r fragment; source: autolytic digestion of bought purified C1r (Complement Tech) overnight at 37 °C; used in the digestion mix (SEC) and purified (SPR)
T2 sequence: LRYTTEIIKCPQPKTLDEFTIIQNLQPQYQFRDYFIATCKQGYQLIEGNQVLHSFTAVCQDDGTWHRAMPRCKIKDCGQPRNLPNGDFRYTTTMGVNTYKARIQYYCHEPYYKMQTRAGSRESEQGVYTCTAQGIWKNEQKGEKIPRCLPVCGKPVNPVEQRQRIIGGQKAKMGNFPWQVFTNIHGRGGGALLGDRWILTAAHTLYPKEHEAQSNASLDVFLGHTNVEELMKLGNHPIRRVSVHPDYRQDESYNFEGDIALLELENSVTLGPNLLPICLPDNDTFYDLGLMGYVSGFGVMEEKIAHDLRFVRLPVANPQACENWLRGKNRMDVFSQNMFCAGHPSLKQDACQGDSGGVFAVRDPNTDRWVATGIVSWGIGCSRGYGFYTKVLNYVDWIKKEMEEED

[3] = molecular target: T3, C1r CCP1-CCP2-SP-auto, autolytic fragment of human C1r (Leu-300 to Asp-705) (human, UniProt P00736 300-705); assay: SPR; Biacore T200, 25°C; BBK32(206-348) immobilised by amine coupling; C1r fragments as analytes, single-cycle kinetics as for C1r, 0.8 to 500 nM; 1:1 kinetic fit; triplicate; conditions: both partners purified
T3 construct: complement C1r, human, residues Leu-300 to Asp-705 by mass spectrometry: last six residues of CUB2 and the whole of CCP1-CCP2-SP; Migrates as one 55 kDa band on non-reducing SDS-PAGE; also called 55 kDa fragment; source: autolytic digestion of bought C1r (Complement Tech) overnight at 37°C, purified
T3 sequence: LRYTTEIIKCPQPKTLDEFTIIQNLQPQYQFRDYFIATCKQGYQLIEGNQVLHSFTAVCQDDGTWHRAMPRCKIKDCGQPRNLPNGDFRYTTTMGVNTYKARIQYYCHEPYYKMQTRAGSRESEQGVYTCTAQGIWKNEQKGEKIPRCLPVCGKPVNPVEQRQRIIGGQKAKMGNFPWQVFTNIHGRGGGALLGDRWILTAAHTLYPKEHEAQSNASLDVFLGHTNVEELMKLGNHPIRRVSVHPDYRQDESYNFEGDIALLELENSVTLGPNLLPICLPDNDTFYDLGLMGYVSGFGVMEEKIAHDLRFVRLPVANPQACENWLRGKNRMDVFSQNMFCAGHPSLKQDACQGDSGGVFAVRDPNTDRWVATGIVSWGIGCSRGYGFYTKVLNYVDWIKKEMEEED

[4] = molecular target: T4, recombinant His-C1r-CCP2-SP (residues 376-705) (human, UniProt P00736 376-705); assay: as above; conditions: both partners purified
T4 construct: complement C1r, human, CCP2-SP domains, residues 376-705 (domains as defined by UniProt P00736); also called rHIS-C1r-CCP2-SP
T4 sequence: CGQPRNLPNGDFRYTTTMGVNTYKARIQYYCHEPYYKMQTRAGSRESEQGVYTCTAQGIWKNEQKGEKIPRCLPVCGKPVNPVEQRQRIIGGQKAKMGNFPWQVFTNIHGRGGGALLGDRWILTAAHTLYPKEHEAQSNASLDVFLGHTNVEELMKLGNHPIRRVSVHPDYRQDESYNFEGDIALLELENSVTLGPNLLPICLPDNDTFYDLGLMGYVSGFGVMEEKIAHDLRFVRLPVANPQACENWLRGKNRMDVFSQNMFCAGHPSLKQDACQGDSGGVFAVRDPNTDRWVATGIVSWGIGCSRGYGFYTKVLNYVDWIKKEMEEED

[5] = molecular target: T5, human C1r, full-length enzyme (human, UniProt P00736 18-705); assay: SPR; Biacore T200, 25°C; borrelial protein immobilised by amine coupling; C1r as analyte, single-cycle kinetics, five-fold dilution series 1.6 to 1000 nM; HBS-T with 5 mM CaCl2; 1:1 kinetic fit; triplicate; conditions: both partners purified
T5 construct: complement C1r, human, 92 kDa, CUB1-EGF-CUB2-CCP1-CCP2-SP; bought as purified full-length enzyme; source: bought: Complement Technology (Tyler, TX), purified
T5 sequence: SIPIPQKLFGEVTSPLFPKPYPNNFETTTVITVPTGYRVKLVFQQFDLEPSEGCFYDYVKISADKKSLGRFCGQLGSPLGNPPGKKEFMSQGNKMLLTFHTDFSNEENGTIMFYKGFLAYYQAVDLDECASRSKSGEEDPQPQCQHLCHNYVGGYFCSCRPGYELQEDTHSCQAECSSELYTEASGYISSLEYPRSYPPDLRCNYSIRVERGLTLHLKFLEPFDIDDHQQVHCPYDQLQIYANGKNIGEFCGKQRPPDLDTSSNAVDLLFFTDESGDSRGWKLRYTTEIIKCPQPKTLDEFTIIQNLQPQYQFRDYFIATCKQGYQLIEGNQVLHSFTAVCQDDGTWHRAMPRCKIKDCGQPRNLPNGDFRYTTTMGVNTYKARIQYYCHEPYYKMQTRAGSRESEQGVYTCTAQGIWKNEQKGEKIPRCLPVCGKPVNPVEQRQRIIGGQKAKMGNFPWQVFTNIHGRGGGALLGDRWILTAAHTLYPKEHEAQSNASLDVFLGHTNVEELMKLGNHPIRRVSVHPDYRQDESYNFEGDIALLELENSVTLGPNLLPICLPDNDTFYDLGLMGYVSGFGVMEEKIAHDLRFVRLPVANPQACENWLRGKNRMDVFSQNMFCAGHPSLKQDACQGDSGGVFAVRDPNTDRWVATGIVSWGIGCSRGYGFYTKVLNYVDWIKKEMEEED

[6] = molecular target: T6, human C1r, full-length enzyme (human, UniProt P00736 18-705); assay: cell-based or functional assay
T6 sequence: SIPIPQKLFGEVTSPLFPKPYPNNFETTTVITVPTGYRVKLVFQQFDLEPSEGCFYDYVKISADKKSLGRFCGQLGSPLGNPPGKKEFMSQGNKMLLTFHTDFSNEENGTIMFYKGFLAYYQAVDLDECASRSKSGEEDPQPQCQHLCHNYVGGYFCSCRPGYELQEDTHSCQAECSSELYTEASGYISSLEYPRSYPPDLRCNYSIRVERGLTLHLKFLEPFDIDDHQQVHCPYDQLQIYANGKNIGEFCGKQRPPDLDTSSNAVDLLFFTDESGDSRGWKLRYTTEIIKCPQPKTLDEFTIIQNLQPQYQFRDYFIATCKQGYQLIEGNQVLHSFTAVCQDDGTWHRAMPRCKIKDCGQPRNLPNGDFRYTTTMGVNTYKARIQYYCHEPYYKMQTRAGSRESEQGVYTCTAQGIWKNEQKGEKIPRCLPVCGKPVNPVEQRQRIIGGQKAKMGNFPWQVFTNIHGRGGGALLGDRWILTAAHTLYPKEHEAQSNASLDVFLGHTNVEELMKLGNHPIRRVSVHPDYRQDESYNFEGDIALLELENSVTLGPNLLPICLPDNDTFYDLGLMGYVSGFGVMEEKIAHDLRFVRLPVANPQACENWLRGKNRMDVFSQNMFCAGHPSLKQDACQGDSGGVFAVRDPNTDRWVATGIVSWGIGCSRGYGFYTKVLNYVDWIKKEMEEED

human C1 complex = molecular target: T7, human C1 complex (human, UniProt P02745 23-245; P02746 28-253; P02747 29-245); assay: SPR; Biacore T200, 25°C; borrelial protein immobilised by amine coupling (CMD200M chip); C1 as analyte, two-fold dilution series 0 to 150 nM, 2 min association, 3 min dissociation; HBS-T (20 mM HEPES pH 7.3, 140 mM NaCl, 0.005% Tween-20) with 5 mM CaCl2; 1:1 kinetic fit; triplicate; conditions: both partners purified
T7 construct: C1q subunit A, human; C1q subunit B, human; C1q subunit C, human; complement C1r, human, within the C1r2C1s2 heterotetramer; complement C1s, human, within the C1r2C1s2 heterotetramer; also called first component of complement; source: bought: Complement Technology (Tyler, TX), purified; copies: + + + 2 + 2

B1: BBK32_((206-348)) (residues 206-348, B. burgdorferi strain B31) (domain or fragment)
chain: SNRYQSYLEGVKYNVDSAIQTITKIYNTYTLFSTKLTQMYSTRLDNFAKAKAKEEAAKFTKEDLEKNFKTLLNYIQVSVKTAANFVYINDTHAKRKLENIEAEIKTLIAKIKEQSNLYEAYKAIVTSILLMRDSLKEVQGIID
notes: BBK32 of Borrelia burgdorferi strain B31, residues 206-348 (lacks six C-terminal residues relative to BBK32-C); The deposited model holds residues 209-348; also called BBK32-C_((206-348)); crystallization construct
Kd [1]: 3.9 nM
Kd [2]: 1.5 nM

B2: BBK32(206-348) (residues 206-348, B. burgdorferi strain B31) (domain or fragment)
chain: SNRYQSYLEGVKYNVDSAIQTITKIYNTYTLFSTKLTQMYSTRLDNFAKAKAKEEAAKFTKEDLEKNFKTLLNYIQVSVKTAANFVYINDTHAKRKLENIEAEIKTLIAKIKEQSNLYEAYKAIVTSILLMRDSLKEVQGIID
notes: BBK32, Borrelia burgdorferi strain B31, residues 206-348 (lacks six C-terminal residues relative to BBK32-C); also called BBK32-C(206-348); source: recombinant, sub-cloned into pT7HMT, purified to homogeneity
koff [3]: 2.6e-05 s⁻¹
kon [3]: 17000 M⁻¹ s⁻¹
koff [4]: 3.7e-05 s⁻¹
kon [4]: 9400 M⁻¹ s⁻¹
Kd [5]: 0.75 nM
koff [5]: 9.7e-06 s⁻¹
kon [5]: 13000 M⁻¹ s⁻¹

B3: BGD19-C (residues 206-354, B. garinii strain IP90) (domain or fragment)
chain: SNRYQSYLEGVKYNVDSAIKTITKIYDTYTLFLTKLTQMYSTRLDNLAKAKAKEEAAKFTKEDLEKNFKTLLNYIQVSVKTATNFVYINDTHAKRKLENIETKIKTLIAKIKEKSNLYQAYKAIVRPILLMRDSLKEVQGAIDKNGIWY
IC50 of C3b deposition, classical pathway-specific ELISA with normal human serum [6]: 32 nM
IC50 of MAC deposition, classical pathway-specific ELISA with normal human serum [6]: 35 nM
IC50 of classical pathway hemolysis of sensitized sheep red blood cells by human serum; no saturable inhibition up to 1 uM [6]: ~7600 nM

B4: BGD19-C (residues 206-354, B. garinii strain IP90) (domain or fragment)
chain: SNRYQSYLEGVKYNVDSAIKTITKIYDTYTLFLTKLTQMYSTRLDNLAKAKAKEEAAKFTKEDLEKNFKTLLNYIQVSVKTATNFVYINDTHAKRKLENIETKIKTLIAKIKEKSNLYQAYKAIVRPILLMRDSLKEVQGAIDKNGIWY
Kd [5]: 5.3 nM
koff [5]: 8.1e-05 s⁻¹
kon [5]: 15000 M⁻¹ s⁻¹
Kd (human C1 complex): 3 nM
koff (human C1 complex): 0.00035 s⁻¹
kon (human C1 complex): 120000 M⁻¹ s⁻¹
